Positions count from the first letter of the chain named. Names and notes keep the numbering of the source.
B1: humanized antibody Hz515H7 VH1 VL1 (antibody, human IgG1, kappa, V domains shown)
VH: EVQLVESGGGLVQPGRSLRLSCTASGFTFTDNYMSWVRQAPGKGLEWVGFIRNKANGYTTEYAASVKGRFTISRDDSKSIAYLQMNSLKTEDTAVYYCARDVGSNYFDYWGQGTLVTVSS
VL: DIVMTQSPDSLAVSLGERATINCKSSQSLFNSRTRKNYLAWYQQKPGQPPKLLIYWASTRESGVPDRFSGSGSGTDFTLTISSLQAEDVAVYYCMQSFNLRTFGQGTKVEIKR
notes: Human IgG1/kappa format; no back mutations; also called 515H7 VH variant 1 VL variant 1
B2: hz515H7 VH1 VL2 (antibody, human IgG1, kappa)
heavy: not shown
light: DIVMTQSPSSLAVSLGERATMSCKSSQSLFNSRTRKNYLAWYQQKPGQSPKLLIYWASARDSGVPARFTGSGSETYFTLTISRVQAEDLAVYYCMQSFNLRTFGQGTKVEIKRTVAAPSVFIFPPSDEQLKSGTASVVCLLNNFYPREAKVQWKVDNALQSGNSQESVTEQDSKDSTYSLSSTLTLSKADYEKHKVYACEVTHQGLSSPVTKSFNRGEC
notes: human IgG1/kappa format; also called VH variant 1 combined with variant 2 of VL
B3: hz515H7 VH1 combined with the chimeric VL (cVL) (antibody, human IgG1, kappa)
heavy: not shown
VL: B2 light with T5S, L15A, R18K, A19V, Q105G, V109L
notes: Humanized VH variant with the chimeric (murine VL, human Ckappa) light chain of c515H7; IgG1/kappa; also called VH1 cVL
B4: anti-CXCR4 chimeric Mab c515H7 (antibody, human IgG1, kappa, V domains shown)
VH: EVNLVESGGGLVQPGGSLRLSCATSGFTFTDNYMSWVRQPPGKALEWLGFIRNKANGYTTDYSASVRGRFTISRDNSQSILYLQMNALRAEDSATYYCARDVGSNYFDYWGQGTTLTVSS
VL: DIVMSQSPSSLAVSAGEKVTMSCKSSQSLFNSRTRKNYLAWYQQKPGQSPKLLIYWASARDSGVPARFTGSGSETYFTLTISRVQAEDLAVYYCMQSFNLRTFGGGTKLEIKR
notes: they may be whole chains; also called chimeric 515H7
B5: anti-CXCR4 chimeric Mab c414H5 (antibody, human IgG1, kappa, V domains shown)
VH: EVKLVESGGGLVQPGGSLRLSCTTSGFTFTDYYMSWVRQSPGKALEWLTFIRNKANGYTTEYSASVKGRFTISRDNSQSILYLQMNTLRAEDSATYYCARDIPGFAYWGQGTLVTVSA
VL: DIVMSQSPSSLAVSAGEKVTMSCKSSQSLYNSRTRKNYLAWYQQKPGQSPKLLIYWASTRESGVPDRFTGSGSGTDFTLTITSVQAEDLAVFYCKQSYNLRTFGGGTKLEIKR
notes: they may be whole chains; also called chimeric 414H5
B6: CXCR4/Rluc fusion protein (receptor, UniProt P61073 1-352, looked up)
chain: MEGISIYTSDNYTEEMGSGDYDSMKEPCFREENANFNKIFLPTIYSIIFLTGIVGNGLVILVMGYQKKLRSMTDKYRLHLSVADLLFVITLPFWAVDAVANWYFGNFLCKAVHVIYTVNLYSSVLILAFISLDRYLAIVHATNSQRPRKLLAEKVVYVGVWIPALLLTIPDFIFANVSEADDRYICDRFYPNDLWVVVFQFQHIMVGLILPGIVILSCYCIIISKLSHSKGHQKRKALKTTVILILAFFACWLPYYIGISIDSFILLEIIKQGCEFENTVHKWISITEALAFFHCCLNPILYAFLGAKFKTSAQHALTSVSRGSSLKILSKGKRGGHSSVSTESESSSFHSS
notes: whole, on cells; Transiently expressed in HEK293 cells for BRET; also called CXCR4 tagged with luciferase; not shown: Renilla reniformis luciferase (Rluc)
B7: anti-CXCR4 Mab 515H7 (antibody, V domains shown)
VH: B4 VH
VL: DIVMSQSPSSLAVSAGEKVTMSCKSSQSLFNSRTRKNYLAWYQQKPGQSPKLLIYWASARDSGVPARFTGSGSETYFTLTISRVQAEDLAVYYCMQSFNLRTFGGGTKLEIK
B8: humanized antibody Hz515H7 VH1 D76N VL2 (antibody, human IgG1, kappa, V domains shown)
VH: B1 VH with D76N
VL: B4 VL with S5T, A15L, K18R, V19A, G105Q, L109V
B9: humanized antibody Hz515H7 VH1 D76N VL2.2 (antibody, human IgG1, kappa, V domains shown)
VH: B1 VH with D76N
VL: B1 VL with I21M, N22S, T59A, E61D, S69T, G74E, D76Y, S83R, L84V
B10: humanized antibody Hz515H7 VH1 D76N VL2.3 (antibody, human IgG1, kappa, V domains shown)
VH: B1 VH with D76N
VL: B1 VL with I21M, N22S, T59A, E61D, S69T, G74E, D76Y, V89L
B11: humanized antibody Hz515H7 VH1 D76N VL2.1 (antibody, human IgG1, kappa, V domains shown)
VH: B1 VH with D76N
VL: B1 VL with I21M, N22S, T59A, E61D, G74E, D76Y, S83R, L84V, V89L
B12: anti-CXCR4 Mab 414H5 (antibody, V domains shown)
VH: B5 VH
VL: DIVMSQSPSSLAVSAGEKVTMSCKSSQSLYNSRTRKNYLAWYQQKPGQSPKLLIYWASTRESGVPDRFTGSGSGTDFTLTITSVQAEDLAVFYCKQSYNLRTFGGGTKLEIK

Biological target: T1, human CXCR4 receptor (wild type) (human, UniProt P61073 1-352)
T1 construct: whole, on cells; Expressed on transfected NIH3T3 / CHO-K1 cells (or their membranes) or endogenous on human cancer cell lines; also called hCXCR4; wild-type CXCR4 receptor
Test: flow cytometry competition with biotinylated murine 515H7 on CXCR4 transfected NIH3T3 cells

Does B1 bind?
Result: binds

Does B2 bind?
Result: binds

Does B3 bind?
Result: binds

Biological target: T1, human CXCR4 receptor (wild type)
Test: SPA competition, Mab 100 nM, labelled competitor [125I]SDF-1 (1 nM), CHO-K1/human CXCR4 membranes
Experimental: CHO-K1 cells, stably and constitutively expressing human CXCR4 receptor were obtained upon transfection of naïve CHO-K¹ cells (ATCC CCL-61) with a mammalian expression vector carrying the whole coding sequence of human CXCR4 receptor (RefSeq NM_{—}003467). Cells were propagated in complete culture medium [DMEM-Ham's F12 supplemented with 5% fetal calf serum (FCS) and 500 μg/ml of geneticin]. Radioligand binding experiments were conducted on cell membranes obtained upon mechanical scrapping of CHO/CXCR4 cells in lysis buffer [Hepes 20 mM, pH 7.4, NaCl 150 mM] followed by centrifugation (10000 g, 15 min). […] Upon centrifugation [1000 g for 10 min.] radioactive counts were measured in a scintillation counter (TopCount, Perkin Elmer).

For B4, which “% inhibition of [125I]SDF-1” value is on record?
The value was 55%.

How did the “% inhibition of [125I]SDF-1” value turn out when B5 was run?
The value was 21%.

Biological target: T2, CXCR2:YFP fusion protein (UniProt P25025 1-360)
T2 construct: whole, on cells; Transiently expressed in HEK293 cells for BRET; not shown: Yellow fluorescent protein (EYFP)
T2 sequence (looked up): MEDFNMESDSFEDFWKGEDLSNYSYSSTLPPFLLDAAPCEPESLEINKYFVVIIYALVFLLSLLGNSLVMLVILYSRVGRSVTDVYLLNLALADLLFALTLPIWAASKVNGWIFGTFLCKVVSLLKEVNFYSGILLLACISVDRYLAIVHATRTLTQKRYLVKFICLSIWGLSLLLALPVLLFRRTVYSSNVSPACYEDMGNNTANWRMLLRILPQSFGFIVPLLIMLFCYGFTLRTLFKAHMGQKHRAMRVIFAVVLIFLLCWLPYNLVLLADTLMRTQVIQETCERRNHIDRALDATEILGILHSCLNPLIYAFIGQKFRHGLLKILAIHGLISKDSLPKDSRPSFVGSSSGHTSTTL
Test: BRET in transiently transfected HEK293 cells

Does B6 bind?
Result: binds

Biological target: T1, human CXCR4 receptor (wild type)
Test: cell-based or functional assay

With B7 as the binder, how does the “% of inhibition of [35S]GTPγS binding stimulated by SDF-1 (100 nM)” value (shortened to “% of inhibition … (100 nM)”) read?
Its value is 71%.

And the “IC50, [35S]GTPγS binding, Hela cells, SDF-1 10 nM” value (“IC50 … Hela cells, SDF-1 10 nM” for short)?
The value was 0.2 nM.

And the “IC50, [35S]GTPγS binding, NIH3T3/CXCR4 cells, SDF-1 10 nM” value (“IC50 … NIH3T3/CXCR4 cells, SDF-1 10 nM” for short)?
Its value is 1.9 nM.

And the “decrease in SDF-1-induced U937 cells migration” value?
Its value is > 80%.

And the “inhibition of SDF-1-induced BRET increase (CXCR4 homo-dimers)” value?
Its value is 69%.

And the “inhibition of SDF-1-induced β-arrestin recruitment (BRET)” value (“inhibition … (BRET)” for short)?
Its value is 95%.

B8 was tested. Which “% of inhibition … (100 nM)” value did it give?
The value was 86%.

What about the “IC50, [35S]GTPγS binding, NIH3T3/CXCR4 cells” value of the same binder?
Its value is 3.86 nM.

And the “inhibition … (BRET)” value?
Its value is ~94%.

What about the “percentage of inhibition of SDF-1-induced BRET increase (CXCR4 homo-dimers)” value of the same binder?
Its value is ~88%.

How did the “% of inhibition … (100 nM)” value turn out when B4 was run?
Its value is 71%.

What about the “IC50 … Hela cells, SDF-1 10 nM” value of the same binder?
Its value is 0.6 nM.

What about the “IC50 … NIH3T3/CXCR4 cells, SDF-1 10 nM” value of the same binder?
Its value is 1.5 nM.

And the “decrease in SDF-1-induced U937 cells migration” value?
The value was > 80%.

And the “inhibition of SDF-1-induced BRET increase (CXCR4 homo-dimers)” value?
The value was 96%.

And the “inhibition … (BRET)” value?
Its value is 93%.

With B9 as the binder, how does the “% of inhibition … (100 nM)” value read?
Its value is 66%.

What about the “IC50, [35S]GTPγS binding, NIH3T3/CXCR4 cells” value of the same binder?
Its value is 5.19 nM.

What about the “inhibition … (BRET)” value of the same binder?
The value was ~82%.

What about the “percentage of inhibition of SDF-1-induced BRET increase (CXCR4 homo-dimers)” value of the same binder?
The value was ~33%.

For B10, which “% of inhibition … (100 nM)” value is on record?
The value was 58%.

And the “IC50, [35S]GTPγS binding, NIH3T3/CXCR4 cells” value?
Its value is 8.5 nM.

And the “inhibition … (BRET)” value?
The value was ~71%.

And the “percentage of inhibition of SDF-1-induced BRET increase (CXCR4 homo-dimers)” value?
The value was ~21%.

For B11, which “% of inhibition … (100 nM)” value is on record?
Its value is 69%.

And the “IC50, [35S]GTPγS binding, NIH3T3/CXCR4 cells” value?
Its value is 4.05 nM.

What about the “inhibition … (BRET)” value of the same binder?
Its value is ~81%.

What about the “percentage of inhibition of SDF-1-induced BRET increase (CXCR4 homo-dimers)” value of the same binder?
Its value is ~65%.

For B12, which “IC50 … Hela cells, SDF-1 10 nM” value is on record?
Its value is 0.5 nM.

What about the “IC50 … NIH3T3/CXCR4 cells, SDF-1 10 nM” value of the same binder?
Its value is 1.6 nM.

What about the “inhibition of SDF-1-induced BRET increase (CXCR4 homo-dimers)” value of the same binder?
The value was 63%.

What about the “inhibition … (BRET)” value of the same binder?
The value was ~20%.

Which results are given for B5?
IC50, [35S]GTPγS binding, Hela cells, SDF-1 10 nM: 0.3 nM; IC50, [35S]GTPγS binding, NIH3T3/CXCR4 cells, SDF-1 10 nM: 1.1 nM; decrease in SDF-1-induced U937 cells migration: ~50%; inhibition of SDF-1-induced BRET increase (CXCR4 homo-dimers): 75%; inhibition of SDF-1-induced β-arrestin recruitment (BRET): ~63%
